This is an account of results in patent publication US20220251184A1 (Regeneron, published 2022).

Some results are limits rather than exact numbers.

The target of test [1] is T1, human BMP6 (R&D Systems, Cat #507-BP) (human, UniProt P22004 375-513, limits assumed).
T1 construct: Bought protein (R&D Systems 507-BP or 507-BP/CF); also called hBMP6; hBMP-6
T1 sequence: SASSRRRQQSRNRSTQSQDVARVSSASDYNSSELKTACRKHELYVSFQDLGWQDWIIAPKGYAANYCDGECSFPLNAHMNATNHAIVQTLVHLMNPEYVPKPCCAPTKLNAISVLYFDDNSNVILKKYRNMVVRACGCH
Nature of the test: SPR (MASS-1), mAb captured on anti-human Fc, hBMP6 in solution, 37 C; no dissociation observed, kd manually fixed at 1.00E-05; 37 C; no dissociation observed, kd fixed at 1.00E-05. The protocol:
(§1) Equilibrium dissociation constants (KD values) for human and mouse BMP6 binding to purified anti-BMP6 monoclonal antibodies of this invention were determined using a real-time surface plasmon resonance (SPR) biosensor instrument, MASS-1. All binding studies were performed in 10 mM HEPES, 150 mM NaCl, 3 mM EDTA, 1 μg/mL Heparin, and 0.05% v/v Surfactant Tween-20, pH 7.4 (HBS-EHT) running buffer at 25° C. and 37° C. The HCA sensor surface was first derivatized by amine coupling the monoclonal mouse anti-human Fc antibody (GE, #BR100839) and anti-BMP6 monoclonal antibodies were individually captured. Different concentrations of human BMP6 reagents (hBMP6; R&D Systems, Cat #507-BP; 60 nM-0.94 nM; 4-fold serial dilution) or mouse BMP6 (mBMP6; R&D Systems, Cat #6325-BM; 60 nM and 15 nM) prepared in HBS-EHT running buffer were injected over the captured anti-BMP6 monoclonal antibody for 4 minutes at a flow rate of 30 μL/minute, while the dissociation of BMP6 reagent bound to captured anti-BMP6 monoclonal antibody was monitored for 10 minutes in HBS-EHT running buffer. Kinetic association (kₐ) and dissociation (kd) rate constants were determined by fitting the real-time binding sensorgrams to a 1:1 binding model with mass transport limitation using Scrubber 2.0c software. […]

Test [2] has as its target T1, human BMP6 (R&D Systems, Cat #507-BP). Nature of the test: SPR (MASS-1), mAb captured on anti-human Fc, hBMP6 in solution, 25 C; 25 C. Here is the method: as §1
A further test addresses T2, Human BMP12/GDF7 (human, UniProt Q7Z4P5 322-450, limits assumed).
T2 sequence (looked up): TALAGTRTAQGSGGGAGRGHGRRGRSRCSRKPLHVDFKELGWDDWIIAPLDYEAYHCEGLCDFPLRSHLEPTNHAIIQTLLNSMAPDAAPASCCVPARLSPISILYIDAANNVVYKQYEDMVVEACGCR
Nature of the test: BLI (Octet HTX), mAb captured on Protein A sensor, 100 nM ligand, 25 C.

Test [3] addresses T1, human BMP6 (R&D Systems, Cat #507-BP). Kind of test: competition ELISA, antibody titrated against 2.5 nM biot-hBMP6, plate-coated hHJV-hFc as competitor; value below the lower limit of quantitation of 1.25E-09 M. The protocol: These antibody-protein complexes, after a one-hour incubation, were transferred to the microtiter plate coated with hHJV-hFc or hActR2a-hFc. After two hours of incubation at room temperature, the wells were washed, and plate-bound biot-BMP6 was detected with neutravidin conjugated with horseradish peroxidase (HRP) (Thermo Scientific, Cat #31030). The plates were then developed using TMB substrate solution (BD Biosciences, Cat #555214) according to manufacturer's recommendation and absorbance at 450 nm was measured on a Victor X5 plate reader.
Data analysis was performed using a sigmoidal dose-response model within Prism™ software (GraphPad). […] Percent blockade at indicated concentration of the antibody tested was calculated as an indicator of the ability of the antibodies to block the binding of 2.5 nM or 1.5 nM of biot-BMP6 to hHJV-hFc or hActR2a-hFc on the plate, respectively. In the calculation, binding signal of the sample of the constant biot-BMP6 without the presence of the antibody for each assay was referenced as 100% binding or 0% blocking; and the baseline signal of the sample of buffer only without the presence of biot-BMP6 was referenced as 0% binding or 100% blocking.
The isotype control antibody blocked <30% at concentrations up to 300 nM antibody, as expected.

A further test concerns the target T3, Human BMP5 (human, UniProt P22003 317-454, limits assumed).
T3 sequence (looked up): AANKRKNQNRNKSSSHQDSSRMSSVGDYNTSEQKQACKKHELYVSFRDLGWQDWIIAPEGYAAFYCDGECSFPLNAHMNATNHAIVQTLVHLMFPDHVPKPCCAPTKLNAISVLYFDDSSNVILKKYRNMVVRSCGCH
Nature of the test: BLI (Octet HTX), mAb captured on Protein A sensor, 100 nM ligand, 25 C.

B1: H4H17871P (antibody, V domains shown)
VH: EVQLVESGGGLVQPGGSLRLSCAASGFTFNNYAMSWVRQAPGKGLEWVSAISGSGDSTYYADSVKGRFTISRDNSKNTLYLQMNSLRAEDTAVYYCAKRSRSSPFDPWGQGTLVTVSS
VL: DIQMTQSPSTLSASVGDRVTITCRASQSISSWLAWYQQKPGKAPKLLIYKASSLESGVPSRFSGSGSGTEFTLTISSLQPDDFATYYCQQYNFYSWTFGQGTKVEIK
notes: Fully human antibody; also called anti-BMP6 monoclonal antibody; BMP6 antibody of the invention
For the molecule B1, in test [1], the off-rate constant (koff) is at most 1e-05 s⁻¹. For the same molecule, in test [2], binding was characterised by a dissociation constant (Kd) of 0.195 nM. Further, in the test with Human BMP12/GDF7, the binding response was 0.01 nm.

B2: H4H17855P (antibody, V domains shown)
VH: EVQLVESGGGLVQPGGSLRLSCAASGFTFSSYAMSWVRQAPGKGLEWVSAISGSGGRTYYTDSVKGRFTMSRDNSKNTLYLQMNSLRAEDTAVYYCAKRPYNSPFDPWGQGTLVTVSS
VL: EIVLTQSPGTLSLSPGEGATLSCRASQSVSSSYLAWYQQKPGQAPRLLIYGASSRATGIPDRFSGSGSGTDFTLTISRLEPEDFVVYYCQHFGGTPFTFGGGTKVEIK
notes: as for B1
The molecule B2 returned a half-maximal inhibitory concentration (IC50) in test [3] of 0.522 nM. In the test with Human BMP5, this molecule yielded a binding response of 0.01 nm.
